# Assay results as given in publication PMC11733253.
# pKd: −log10 of the molar value.
# Molecular target: MRAS wild type, recombinant from E. coli (human) (UniProt O14807)
# Test: ITC
substance,measurement,value
BRAF-RBD (from UniProt P15056 150-233) (domain or fragment),pKd,5.08
